Measurements taken from patent publication US20150044213A1 (published 2015).
Values joined by “and” are separate entries in the source; they are usually repeats but may differ in a detail not shown here. Equal values may be shown once.

Tests used:
[1] = target: T1, Recombinant human VEGF165 (human, UniProt P15692-4 27-191); assay: SPR (BIAcore T100), VEGF165 on CM4 chip, 1:1 Langmuir model; scFv released from hexPLA formulation, release sample at 14 w
T1 construct: Immobilized on a CM4 sensor chip by amine coupling (about 500 RU)
Protocol: (§1) The affinity of the released ESBA903 monomer toward human VEGF was measured using surface plasmon resonance analysis in comparison to a fresh ESBA903 reference. For evaluation of the binding kinetics, surface plasmon resonance measurements using a BIAcore T100 were performed. Carboxymethylated dextran biosensor chips (CM4, GE HealthCare, Uppsala, Sweden) were activated with N-ethyl-N′-(3-dimethylaminopropyl) carbodiimide hydrochloride and N-hydroxysuccinimide according to the supplier's instructions. Recombinant human VEGF₁₆₅ (PeproTech EC Ltd., London, UK) was immobilized on a CM4 sensor chip using a standard amine-coupling procedure to achieve a response of approximately 500 resonance units. 2-fold serial dilutions (2.5-20 nM) of ESBA903 standard and formulation samples in HBS-EP buffer (10 mM HEPES, 150 mM NaCl, 3 mM EDTA, and 0.05% surfactant P20, pH 7.4) were injected into the flow cells at a flow rate of 30 μL/min for 5 minutes. Dissociation of the anti-VEGF scFv from the VEGF on the CM4 chip was allowed to proceed for 10 minutes. After each injection cycle, surfaces were regenerated with 2 injections of 100 mM NaOH.
(§2) The apparent dissociation (kd) and association (kₐ) rate constants and the apparent dissociation equilibrium constant (KD) were calculated with BIAcore T100 evaluation Software version 2.0.1 using a one-to-one Langmuir binding model (Biacore Inc., Uppsala, Sweden).

[2] = target: T1, Recombinant human VEGF165; assay: SPR (BIAcore T100), VEGF165 on CM4 chip, 1:1 Langmuir model; scFv released from hexPLA formulation, release sample at 3 d
Protocol: as §1, §2

[3] = target: T1, Recombinant human VEGF165; assay: SPR (BIAcore T100), VEGF165 amine-coupled on CM4 chip, scFv 2.5-20 nM injected, 1:1 Langmuir model; fresh reference, time 0
Protocol: as §1, §2

[4] = target: T1, Recombinant human VEGF165; assay: SPR (BIAcore T100), VEGF165 on CM4 chip, 1:1 Langmuir model; scFv released from hexPLA formulation, release sample at 4 w
Protocol: as §1, §2

T1 sequence (P15692 other isoform, or with tags, fused parts or gaps limits assumed): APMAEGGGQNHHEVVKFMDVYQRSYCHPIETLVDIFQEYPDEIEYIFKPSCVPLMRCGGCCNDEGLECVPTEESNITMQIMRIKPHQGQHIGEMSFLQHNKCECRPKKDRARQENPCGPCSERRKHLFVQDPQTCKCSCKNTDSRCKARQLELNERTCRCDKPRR

- Kd [1]: 0.0762 nM and 0.066 nM and 0.0826 nM
- koff [1]: 3.11e-05 s⁻¹ and 2.78e-05 s⁻¹ and 3.37e-05 s⁻¹
- kon [1]: 407000 M⁻¹ s⁻¹ and 421000 M⁻¹ s⁻¹ and 408000 M⁻¹ s⁻¹
- Kd [2]: 0.0594 nM and 0.0685 nM and 0.0489 nM
- koff [2]: 2.77e-05 s⁻¹ and 3e-05 s⁻¹ and 2.59e-05 s⁻¹
- kon [2]: 465000 M⁻¹ s⁻¹ and 439000 M⁻¹ s⁻¹ and 529000 M⁻¹ s⁻¹
- Kd [3]: 0.0256 nM
- koff [3]: 2.45e-05 s⁻¹
- kon [3]: 956000 M⁻¹ s⁻¹
- Kd [4]: 0.0643 nM and 0.0521 nM and 0.0552 nM
- koff [4]: 3.56e-05 s⁻¹ and 3.03e-05 s⁻¹ and 2.34e-05 s⁻¹
- kon [4]: 554000 M⁻¹ s⁻¹ and 582000 M⁻¹ s⁻¹ and 424000 M⁻¹ s⁻¹
B1: ESBA903 (scFv)
scFv: EIVMTQSPSTLSASVGDRVIITCQASEIIHSWLAWYQQKPGKAPKLLIYLASTLASGVPSRFSGSGSGAEFTLTISSLQPDDFATYYCQNVYLASTNGANFGQGTKLTVLGGGGGSGGGGSGGGGSGGGGSEVQLVESGGGLVQPGGSLRLSCTASGFSLTDYYYMTWVRQAPGKGLEWVGFIDPDDDPYYATWAKGRFTISRDTSKNTVYLQMNSLRAEDTAVYYCAGGDHNSGWGLDIWGQGTLVTVSS
notes: Monomeric scFv (about 25 kDa); same protein in all samples; also called humanized antibody-fragment ESBA903; humanized VEGF-antibody fragment ESBA903
